Marks after values point to notes of the source that are not given here. Square brackets hold non-standard residues; d marks the D form. Ends that are not written are not given here. Nle = CCCC[C@H](N)C(=O)O; Orn = NCCC[C@H](N)C(=O)O; Aib = CC(C)(N)C(=O)O
T1: human PAC1 (Homo sapiens, UniProt P41586)
T1 construct: expressed in transfected cells; membranes)
T1 sequence (P41586 21-468): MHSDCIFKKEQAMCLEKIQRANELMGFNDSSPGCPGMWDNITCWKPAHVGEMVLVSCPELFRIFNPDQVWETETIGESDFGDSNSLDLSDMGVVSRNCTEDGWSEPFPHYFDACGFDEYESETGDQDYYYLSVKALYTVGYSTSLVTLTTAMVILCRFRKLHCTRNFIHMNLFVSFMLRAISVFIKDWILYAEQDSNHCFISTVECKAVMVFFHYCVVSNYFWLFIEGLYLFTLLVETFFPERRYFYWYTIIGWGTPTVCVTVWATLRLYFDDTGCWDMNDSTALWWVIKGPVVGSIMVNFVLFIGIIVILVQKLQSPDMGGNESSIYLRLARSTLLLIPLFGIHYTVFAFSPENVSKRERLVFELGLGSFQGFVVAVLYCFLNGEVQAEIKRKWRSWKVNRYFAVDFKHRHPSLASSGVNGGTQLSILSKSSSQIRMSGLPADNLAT

T2: human VPAC1 (Homo sapiens, UniProt P32241)
T2 construct: expressed in transfected cells
T2 sequence (P32241 31-457): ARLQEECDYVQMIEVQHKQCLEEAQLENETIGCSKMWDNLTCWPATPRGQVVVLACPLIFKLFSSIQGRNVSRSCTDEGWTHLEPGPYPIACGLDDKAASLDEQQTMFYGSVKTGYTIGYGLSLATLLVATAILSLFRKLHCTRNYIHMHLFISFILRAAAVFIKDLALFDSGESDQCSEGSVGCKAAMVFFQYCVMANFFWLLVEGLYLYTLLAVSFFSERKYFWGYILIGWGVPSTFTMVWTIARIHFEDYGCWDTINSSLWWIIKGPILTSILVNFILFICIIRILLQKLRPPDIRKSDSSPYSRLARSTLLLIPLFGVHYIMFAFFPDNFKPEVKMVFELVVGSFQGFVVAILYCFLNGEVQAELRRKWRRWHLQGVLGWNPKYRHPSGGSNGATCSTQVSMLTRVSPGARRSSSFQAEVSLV

T3: human VPAC2 receptor (human, UniProt P41587 24-438)
T3 sequence (looked up): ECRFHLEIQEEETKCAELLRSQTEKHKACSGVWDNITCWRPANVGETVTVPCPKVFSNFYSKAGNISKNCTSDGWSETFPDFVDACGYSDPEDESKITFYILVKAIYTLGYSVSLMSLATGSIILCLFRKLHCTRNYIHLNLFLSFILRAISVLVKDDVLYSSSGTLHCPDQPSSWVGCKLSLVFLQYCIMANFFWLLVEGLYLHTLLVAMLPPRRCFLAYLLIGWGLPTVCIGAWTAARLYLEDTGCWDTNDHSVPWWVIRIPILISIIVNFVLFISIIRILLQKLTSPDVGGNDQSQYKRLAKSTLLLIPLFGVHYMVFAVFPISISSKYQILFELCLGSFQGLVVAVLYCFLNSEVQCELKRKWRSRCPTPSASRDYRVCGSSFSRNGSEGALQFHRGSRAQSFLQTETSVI

B1: P268 (cyclic PEGylated VPAC2 receptor peptide agonist) (peptide)
peptide: HSDAVFTENYTKLRKQ[Nle]AAKKYLNDLKQKGGPSSGAPPPC
modifications: ends and bridges not checked; also: cyclic bridge (lactam or disulfide), places not given here, PEGylated, site not given here

What was measured:
human PAC1 = molecular target: T1, human PAC1; assay: Filter binding assay, 125I-labeled PACAP-27 tracer; conditions: membranes from cells transiently transfected with human PAC1; read-out: Human receptor binding IC50 PAC1
Protocol: (§1) In order to prepare the filter plates, the presoak solution is aspirated by vacuum filtration. The plates are flushed twice with 200 μL flush buffer. 200 μL blocking buffer is added to the filter plate. The filter plate is then incubated with 200 μL presoak solution for 1 hour at room temperature.
(§2) The assay plate is filled with 25 μL assay buffer, 25 μL membranes (2.5 μg) suspended in assay buffer, 25 μL compound (agonist) in assay buffer, and 25 μL tracer (about 40000 cpm) in assay buffer. The filled plate is incubated for 1 hour with shaking.
(§3) The transfer from assay plate to filter plate is conducted. The blocking buffer is aspirated by vacuum filtration and washed two times with flush buffer. 90 μL is transferred from the assay plate to the filter plate. The 90 μL transferred from assay plate is aspirated and washed three times with 200 μL flush buffer. The plastic support is removed. It is dried for 1 hour at 60° C. 30 μL Microscint is added. The count is performed.
(§4) Values reported are single results or the mean of two or more independent runs.

[1] = rat, in vivo, sc, 0.1 mg/kg
Protocol: Healthy Fisher 344 rats (3 animals per group) are injected with 100 μg compound/kg (compound amount based on peptide content and dissolved in PBS buffer). […] PK parameters are then calculated using a model-independent method (WinNonlin Pro, Pharsight Corp., Mountain View, Calif., USA).

human VPAC1 = molecular target: T2, human VPAC1; assay: Filter binding assay, 125I-labeled VIP tracer; conditions: membranes from cells transiently transfected with human VPAC1; read-out: Human receptor binding IC50 VPAC1
Protocol: as §1, §2, §3, §4

Normal Wistar rats = assay: Intravenous glucose tolerance test (IVGTT); type: in vivo, rat
Protocol: Intravenous glucose tolerance test (IVGTT): Normal Wistar rats are fasted overnight and are anesthetized prior to the experiment. A blood sampling catheter is inserted into the rats. The compound is given in the jugular vein. Blood samples are taken from the carotid artery. A blood sample is drawn immediately prior to the injection of glucose along with the compound. After the initial blood sample, glucose mixed with compound is injected intravenously (i.v.). Compound may also be injected intravenously or subcutaneously prior to the glucose challenge. A glucose challenge of 0.5 g/kg body weight is given, injecting a total of 1.5 mL vehicle with glucose and agonist per kg body weight. The peptide concentrations are varied to produce the desired dose in μg/kg. Blood samples are drawn at 2, 4, 6 and 10 minutes after giving glucose. The control group of animals receives the same vehicle along with glucose, but with no compound added. In some instances, a 30 minute post-glucose blood sample is drawn. Aprotinin is added to the blood sample (250-500 kIU/ml blood). The serum is then analyzed for glucose and insulin using standard methodologies.
The assay uses a formulated and calibrated peptide stock in PBS. Normally, this stock is a prediluted 100 μM stock. However, a more concentrated stock with approximately 1 mg agonist per mL is used. The specific concentration is always known. Variability in the maximal response is mostly due to variability in the vehicle dose.

human VPAC2 receptor [2] = molecular target: T3, human VPAC2 receptor; assay: cell-based or functional assay
human VPAC2 receptor [3] = molecular target: T3, human VPAC2 receptor; assay: filter binding assay, human VPAC2 membranes, displacement of 125I-VIP
Protocol: as §2, §3

| Molecule | IC50 (human PAC1) | IC50 (human VPAC1) | EC50 for cAMP generation, Alpha screen (human VPAC2 receptor [2]) | other results |
| --- | --- | --- | --- | --- |
| P348: cyclic PEGylated VPAC2 receptor peptide agonist (HSDAVFTENYTKLR[Aib]Q[Nle]AAKKYLNDLK[Aib]KGGPSSGAPPPC; not fully specified (residue 40); ends and bridges not checked; also: cyclic, bridge type and places not given here, PEGylated, site not placed) [Agonist P348] | > 25000 nM | > 1500 nM | – | AUC0-last [1]: 1007 ng·h/mL; Cl/F [1]: 1.5 mL/min/kg; Vd/F [1]: 2.224 L/kg |
| P274: cyclic PEGylated VPAC2 receptor peptide agonist (HSDAVFTENYTKL[Aib]KQ[Nle]AAKKYLNDLKQKGGPSSGAPPPC; not fully specified (residue 40); ends and bridges not checked; also: cyclic, bridge type and places not given here, PEGylated, site not placed) [Agonist P274] | > 25000 nM | > 3000 nM | – | – |
| P279: cyclic PEGylated VPAC2 receptor peptide agonist (HSDAVFTENYTKLR[Aib]Q[Nle]AAKKYLNDLKKGGPSSGAPPPC; not fully specified (residue 39); ends and bridges not checked; also: cyclic, bridge type and places not given here, PEGylated, site not placed) [Agonist P279] | > 25000 nM | > 3000 nM | – | – |
| P201: cyclic PEGylated VPAC2 receptor peptide agonist; P200 reacted with methoxy-PEG2-MAL-40K (HSDAVFTENYTKLRKQ[Nle]AAKKYLNDLKKGGPSSGAPPPC(methoxy‑PEG2‑MAL‑40K); ends and bridges not checked; also: cyclic, bridge kind and places not given here) [Agonist P201] | – | > 3000 nM | – | AUC0-last [1]: 8101 ng·h/mL; Cl/F [1]: 0.2 mL/min/kg; Vd/F [1]: 0.214 L/kg; % increase AUC (insulin, 0-10 min after glucose) (Normal Wistar rats; Dose 10 μg/kg iv, 0 h between glucose & compound): +146%; % increase AUC (insulin, 0-10 min after glucose) (Normal Wistar rats; Dose 10 μg/kg iv, 4 h between glucose & compound): +104%; % increase AUC (insulin, 0-10 min after glucose) (Normal Wistar rats; Dose 30 μg/kg iv, 4 h between glucose & compound): +191%; % increase AUC (insulin, 0-10 min after glucose) (Normal Wistar rats; Dose 100 μg/kg iv, 4 h between glucose & compound): +183%; % increase AUC (insulin, 0-10 min after glucose) (Normal Wistar rats; Dose 300 μg/kg, given subcutaneously, 24 h between glucose & compound): +209%; % increase AUC (insulin, 0-10 min after glucose) (Normal Wistar rats; Dose was 90 μg/kg (column 100 μg/kg), given subcutaneously, 24 h between glucose & compound): +89** % |
| P376: cyclic PEGylated VPAC2 receptor peptide agonist (HSDAVFTENYT[Orn]LR[Aib]Q[Nle]AA[Orn]KYLNDL[Orn][Orn]GGPSSGAPPPC; also: cyclic, bridge type and places not given here, PEGylated, site not placed) [Agonist P376] | > 25000 nM | > 3000 nM | – | – |
| P255: cyclic PEGylated VPAC2 receptor peptide agonist (HSDAVFTENYTKL[Aib]KQ[Nle]AAKKYLNDLKQGGPSSGAPPPC; not fully specified (residue 39); ends and bridges not checked; also: cyclic, bridge type and places not given here, PEGylated, site not placed) [Agonist P255] | > 25000 nM | > 3000 nM | – | AUC0-last [1]: 5797 ng·h/mL; Cl/F [1]: 0.283 mL/min/kg; Vd/F [1]: 0.389 L/kg |
| P239: cyclic PEGylated VPAC2 receptor peptide agonist (HSDAVFTENYTKLRKQ[Nle]AAKKYLNDLKQGGPSSGAPPPC; not fully specified (residue 39); ends and bridges not checked; also: cyclic, bridge type and places not given here, PEGylated, site not placed) [Agonist P239] | > 25000 nM | > 3000 nM | – | – |
| P463: cyclic PEGylated VPAC2 receptor peptide agonist (HSDAVFTENYT[Orn]LR[Aib]Q[Nle]AA[Orn]KYLNDL[Orn][Orn]GGPSSGAPPPC; also: cyclic, bridge type and places not given here, PEGylated, site not given here) [Agonist P463] | > 25000 nM | > 3000 nM | – | – |
| P277: cyclic PEGylated VPAC2 receptor peptide agonist (HSDAVFTENYTKLRKQ[Nle]AAKKYLNDLKQGGPSSGAPPPC; ends and bridges not checked; also: cyclic, bridge type and places not given here, PEGylated, site not placed) [Agonist P277] | > 25000 nM | > 3000 nM | – | – |
| B1 | – | – | 8.82 nM | – |
| HSDAVFTENYTKL[Aib]KQ[Nle]AAKKYLNDLKQKGGPSSGAPPPC (also: further groups not given here) [P274 (cyclic PEGylated VPAC2 receptor peptide agonist)] | – | – | 76.1 nM | IC50 (human VPAC2 receptor [3]): 126 nM |
| HSDAVFTENYTKLRKQ[Nle]AAKKYLNDLKQGGPSSGAPPPC (also: further groups not given here) [P277 (cyclic PEGylated VPAC2 receptor peptide agonist)] | – | – | 470 nM | IC50 (human VPAC2 receptor [3]): 90.9 nM |
| HSDAVFTENYTKLR[Aib]Q[Nle]AAKKYLNDLKKGGPSSGAPPPC (also: further groups not given here) [P279 (cyclic PEGylated VPAC2 receptor peptide agonist)] | – | – | 5.93 nM | IC50 (human VPAC2 receptor [3]): 7.2 nM |

From patent publication US20090118167A1, “Selective Vpac2 Receptor Peptide Agonists” (Eli Lilly and Company Patent Division, priority 2004, published 2009)
